IntAct's records for PubMed 25991726

B1: Ribosome maturation protein SBDS (Homo sapiens), Q9Y3A5 (parent)
chain: MSIFTPTNQIRLTNVAVVRMKRAGKRFEIACYKNKVVGWRSGVEKDLDEVLQTHSVFVNVSKGQVAKKEDLISAFGTDDQTEICKQILTKGEVQVSDKERHTQLEQMFRDIATIVADKCVNPETKRPYTVILIERAMKDIHYSVKTNKSTKQQALEVIKQLKEKMKIERAHMRLRFILPVNEGKKLKEKLKPLIKVIESEDYGQQLEIVCLIDPGCFREIDELIKKETKGKGSLEVLNLKDVEEGDEKFE
partner: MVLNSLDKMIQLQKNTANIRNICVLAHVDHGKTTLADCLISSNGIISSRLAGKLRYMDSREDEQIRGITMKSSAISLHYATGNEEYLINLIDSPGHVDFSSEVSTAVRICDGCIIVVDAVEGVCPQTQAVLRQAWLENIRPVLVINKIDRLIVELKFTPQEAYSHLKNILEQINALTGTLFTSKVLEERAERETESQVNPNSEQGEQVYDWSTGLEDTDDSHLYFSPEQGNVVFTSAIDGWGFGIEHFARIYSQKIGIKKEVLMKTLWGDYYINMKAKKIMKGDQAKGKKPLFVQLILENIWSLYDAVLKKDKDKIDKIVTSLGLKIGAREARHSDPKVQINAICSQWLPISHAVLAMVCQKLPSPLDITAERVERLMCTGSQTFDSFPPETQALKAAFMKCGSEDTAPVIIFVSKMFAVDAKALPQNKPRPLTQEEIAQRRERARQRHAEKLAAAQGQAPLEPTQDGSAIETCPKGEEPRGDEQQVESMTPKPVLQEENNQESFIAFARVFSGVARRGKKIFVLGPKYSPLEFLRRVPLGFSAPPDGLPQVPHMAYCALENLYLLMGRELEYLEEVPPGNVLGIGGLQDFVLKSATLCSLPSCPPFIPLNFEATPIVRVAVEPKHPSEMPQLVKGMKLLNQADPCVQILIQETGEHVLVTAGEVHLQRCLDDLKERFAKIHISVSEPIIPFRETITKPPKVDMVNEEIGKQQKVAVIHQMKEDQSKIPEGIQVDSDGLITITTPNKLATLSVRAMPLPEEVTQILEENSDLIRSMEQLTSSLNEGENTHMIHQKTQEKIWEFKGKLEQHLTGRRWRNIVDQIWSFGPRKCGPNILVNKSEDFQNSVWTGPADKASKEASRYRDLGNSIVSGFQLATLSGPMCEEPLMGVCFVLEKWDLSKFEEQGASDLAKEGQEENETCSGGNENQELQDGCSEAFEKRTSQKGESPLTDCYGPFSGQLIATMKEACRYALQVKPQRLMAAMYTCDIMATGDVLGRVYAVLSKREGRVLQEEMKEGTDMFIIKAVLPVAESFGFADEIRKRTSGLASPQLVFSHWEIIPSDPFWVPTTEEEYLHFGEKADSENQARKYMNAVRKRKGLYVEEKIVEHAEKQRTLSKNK

Variants of: B1
Conditions: with efl1_human EFL1, Q7Z2Z2

effect of a mutation on the interaction | Variant
decreasing interaction strength | S143L
